Measured values reported in PMC8916728.

Target: 1-32–captured Pentamer (HCMV Pentamer bound by 1-32 IgG) (human cytomegalovirus (strain Towne) | human) (UniProt P17176)
Test: BLI

B1: untagged NRP2 (receptor)
chain: RGQPDPPCGGRLNSKDAGYITSPGYPQDYPSHQNCEWIVYAPEPNQKIVLNFNPHFEIEKHDCKYDFIEIRDGDSESADLLGKHCGNIAPPTIISSGSMLYIKFTSDYARQGAGFSLRYEIFKTGSEDCSKNFTSPNGTIESPGFPEKYPHNLDCTFTILAKPKMEIILQFLIFDLEHDPLQVGEGDCKYDWLDIWDGIPHVGPLIGKYCGTKTPSELRSSTGILSLTFHTDMAVAKDGFSARYYLVHQEPLENFQCNVPLGMESGRIANEQISASSTYSDGRWTPQQSRLHGDDNGWTPNLDSNKEYLQVDLRFLTMLTAIATQGAISRETQNGYYVKSYKLEVSTNGEDWMVYRHGKNHKVFQANNDATEVVLNKLHAPLLTRFVRIRPQTWHSGIALRLELFGCRVTDAPCSNMLGMLSGLIADSQISASSTQEYLWSPSAARLVSSRSGWFPRIPQAQPGEEWLQVDLGTPKTVKGVIIQGARGGDSITAVEARAFVRKFKVSYSLNGKDWEYIQDPRTQQPKLFEGNMHYDTPDIRRFDPIPAQYVRVYPERWSPAGIGMRLEVLGCDWTDSKPTVETLGPTVKSEETTTPYPTEEEATECGENCSFEDDKDLQLPSGFNCNFDFLEEPCGWMYDHAKWLRTTWASSSSPNDRTFPDDRNFLRLQSDSQREGQYARLISPPVHLPRSPVCMEFQYQATGGRGVALQVVREASQESKLLWVIREDQGGEWKHGRIILPSYDMEYQIVFEGVIGKGRSGEIAIDDIRISTDVPLENCMEPISAFAGENFKVDIPEIHEREGYEDEIDDEYEVDWSNSSSATSGSGAPSTDKEKSWLYTLDPILITIIAMSSLGVLLGATCAGLLLYCTCSYSGLSSRSCTTLENYNFELYDGLKHKVKMNHQKCCSEA
Kd: 133 nM
